Test results taken from US20150174289A1 (OMRIX BIOPHARMACEUTICALS, published 2015).

Molecular target: T1, fibrin monomers (UniProt P02671 36-629; P02675 45-491; P02679 27-437)
T1 sequence (looked up) 1: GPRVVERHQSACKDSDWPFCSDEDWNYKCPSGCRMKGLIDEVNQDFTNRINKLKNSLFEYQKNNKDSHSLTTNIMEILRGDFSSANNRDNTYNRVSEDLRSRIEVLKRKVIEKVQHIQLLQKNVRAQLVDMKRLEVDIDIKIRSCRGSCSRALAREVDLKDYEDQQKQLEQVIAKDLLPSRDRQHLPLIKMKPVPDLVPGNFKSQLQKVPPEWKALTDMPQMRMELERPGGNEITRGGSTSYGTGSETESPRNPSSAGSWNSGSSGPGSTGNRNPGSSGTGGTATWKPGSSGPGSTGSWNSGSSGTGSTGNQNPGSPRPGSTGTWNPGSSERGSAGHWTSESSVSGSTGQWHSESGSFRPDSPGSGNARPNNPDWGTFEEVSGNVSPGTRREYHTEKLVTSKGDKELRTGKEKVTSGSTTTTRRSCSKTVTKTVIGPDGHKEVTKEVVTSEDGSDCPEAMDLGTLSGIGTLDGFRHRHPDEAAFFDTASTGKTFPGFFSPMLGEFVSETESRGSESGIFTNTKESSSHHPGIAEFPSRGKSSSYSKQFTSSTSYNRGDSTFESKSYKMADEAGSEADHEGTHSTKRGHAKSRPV
T1 sequence (looked up) 2: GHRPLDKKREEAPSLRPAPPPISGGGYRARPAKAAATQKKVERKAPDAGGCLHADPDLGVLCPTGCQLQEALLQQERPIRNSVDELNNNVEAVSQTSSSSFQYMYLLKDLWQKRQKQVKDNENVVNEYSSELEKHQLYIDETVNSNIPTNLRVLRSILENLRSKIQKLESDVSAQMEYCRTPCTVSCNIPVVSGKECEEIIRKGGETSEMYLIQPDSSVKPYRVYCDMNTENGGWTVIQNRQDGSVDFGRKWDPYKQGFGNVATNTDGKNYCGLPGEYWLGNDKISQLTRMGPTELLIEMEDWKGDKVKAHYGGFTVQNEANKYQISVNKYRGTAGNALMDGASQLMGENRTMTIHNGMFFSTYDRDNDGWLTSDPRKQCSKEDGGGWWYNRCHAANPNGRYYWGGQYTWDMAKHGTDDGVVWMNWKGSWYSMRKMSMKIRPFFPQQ
T1 sequence (looked up) 3: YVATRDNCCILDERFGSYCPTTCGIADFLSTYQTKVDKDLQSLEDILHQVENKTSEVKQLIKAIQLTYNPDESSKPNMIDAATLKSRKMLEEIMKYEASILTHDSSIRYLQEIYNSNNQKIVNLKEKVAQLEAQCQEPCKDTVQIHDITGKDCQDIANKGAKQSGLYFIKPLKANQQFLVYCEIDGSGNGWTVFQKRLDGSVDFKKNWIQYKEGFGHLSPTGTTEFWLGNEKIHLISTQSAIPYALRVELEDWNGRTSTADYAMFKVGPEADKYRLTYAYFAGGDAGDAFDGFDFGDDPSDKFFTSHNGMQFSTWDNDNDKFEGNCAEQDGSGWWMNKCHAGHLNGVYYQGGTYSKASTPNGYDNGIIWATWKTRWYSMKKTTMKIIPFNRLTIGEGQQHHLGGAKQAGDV
Experiment: cell-based or functional assay

Time to clot (1% fibrin monomers, 1 mM GPRP, 34 fold GPRP:fibrin): < 5 min
Time to clot (1% fibrin monomers, 5 mM GPRP, 170 fold GPRP:fibrin): 4 h
Time to clot (1.5% fibrin monomers, 20 mM GPRP, 453 fold GPRP:fibrin): > 2 weeks
Time to clot (3% fibrin monomers, 0.1 mM GPRP, 1.1 fold GPRP:fibrin): 5 s
Time to clot (3% fibrin monomers, 0.2 mM GPRP, 2.3 fold GPRP:fibrin): 7 s
Time to clot (3% fibrin monomers, 0.5 mM GPRP, 5.7 fold GPRP:fibrin): 11 s
Time to clot (3% fibrin monomers, 1 mM GPRP, 11.3 fold GPRP:fibrin): 13 s
Time to clot (3% fibrin monomers, 1.5 mM GPRP, 17 fold GPRP:fibrin): 22 s
Time to clot (3% fibrin monomers, 2 mM GPRP, 22.7 fold GPRP:fibrin): 28 s
Time to clot (3% fibrin monomers, 3 mM GPRP, 34 fold GPRP:fibrin): 2.5 min
Time to clot (3% fibrin monomers, 4 mM GPRP, 45 fold GPRP:fibrin): 8 min
Time to clot (3% fibrin monomers, 5 mM GPRP, 56.7 fold GPRP:fibrin): 15 min
Time to clot (3.5% fibrin monomers, 40 mM GPRP, 389 fold GPRP:fibrin): > 2 weeks
B1: GPRP peptide (Gly-Pro-Arg-Pro) (peptide)
peptide: GPRP
